According to publication PMC4442312 (eLife, 2015):
Ends that are not written are not given here. Me3 = tri-methylated lysine; Me2 = di-methylated lysine

T1: T7-ORCA (full-length) (human, UniProt Q9UFC0 1-647)
T1 construct: ORCA/LRWD1, full length; also called T7-tagged ORCA; full-length T7-ORCA; source: U2OS, transiently transfected, in lysate
T1 sequence (looked up): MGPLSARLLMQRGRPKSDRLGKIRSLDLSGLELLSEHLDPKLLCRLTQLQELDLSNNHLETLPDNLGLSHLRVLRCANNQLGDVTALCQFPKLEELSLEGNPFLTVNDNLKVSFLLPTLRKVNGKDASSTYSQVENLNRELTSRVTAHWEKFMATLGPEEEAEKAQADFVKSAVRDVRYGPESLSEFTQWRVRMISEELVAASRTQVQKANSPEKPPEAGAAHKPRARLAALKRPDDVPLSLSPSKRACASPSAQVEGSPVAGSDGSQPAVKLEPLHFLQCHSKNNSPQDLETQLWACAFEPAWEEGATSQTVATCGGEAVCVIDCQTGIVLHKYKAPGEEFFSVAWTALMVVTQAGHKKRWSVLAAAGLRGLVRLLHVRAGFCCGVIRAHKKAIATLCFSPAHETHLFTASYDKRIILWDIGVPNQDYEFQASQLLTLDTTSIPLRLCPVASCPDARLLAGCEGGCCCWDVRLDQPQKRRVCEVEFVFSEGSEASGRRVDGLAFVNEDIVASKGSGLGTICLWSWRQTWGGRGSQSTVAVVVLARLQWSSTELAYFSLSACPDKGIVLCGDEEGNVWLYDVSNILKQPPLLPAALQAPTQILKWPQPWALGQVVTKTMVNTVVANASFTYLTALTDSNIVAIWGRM

T2: His-ORCA (baculovirus) (human, UniProt Q9UFC0 1-647)
T2 construct: ORCA/LRWD1 in pFastBac HT-B; also called purified His-tagged-ORCA; baculovirally purified His-ORCA; source: Hi5 insect cells (baculovirus), nuclear extract, 45% ammonium sulfate precipitation; called 'baculovirally purified'
T2 sequence (looked up): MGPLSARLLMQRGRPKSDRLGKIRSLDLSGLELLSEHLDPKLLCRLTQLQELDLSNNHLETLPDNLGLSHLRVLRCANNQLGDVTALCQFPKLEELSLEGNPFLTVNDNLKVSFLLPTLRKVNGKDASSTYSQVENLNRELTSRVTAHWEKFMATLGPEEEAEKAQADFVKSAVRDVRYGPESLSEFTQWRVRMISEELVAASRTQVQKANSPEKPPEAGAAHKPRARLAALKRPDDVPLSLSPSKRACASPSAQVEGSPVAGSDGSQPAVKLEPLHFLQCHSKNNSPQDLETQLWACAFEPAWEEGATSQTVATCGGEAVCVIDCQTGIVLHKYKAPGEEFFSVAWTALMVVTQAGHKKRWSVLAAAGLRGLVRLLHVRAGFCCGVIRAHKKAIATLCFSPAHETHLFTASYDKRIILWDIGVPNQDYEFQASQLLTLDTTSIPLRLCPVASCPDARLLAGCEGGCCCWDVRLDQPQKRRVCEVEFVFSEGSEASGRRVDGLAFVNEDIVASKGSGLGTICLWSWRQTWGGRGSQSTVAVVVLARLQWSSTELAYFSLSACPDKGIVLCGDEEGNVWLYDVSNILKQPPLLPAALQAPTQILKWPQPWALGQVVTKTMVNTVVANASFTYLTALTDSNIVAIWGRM


What was measured:
T7-ORCA (full-length) = molecular target: T1, T7-ORCA (full-length); assay: single-molecule pull-down (SiMPull); biotinylated T7 antibody on NeutrAvidin/PEG quartz slides; U2OS lysates co-expressing T7-ORCA and one YFP protein; TIRF, YFP photobleaching steps; biotinylated HA antibody as control; settings: partners not purified
His-ORCA (baculovirus) = molecular target: T2, His-ORCA (baculovirus); assay: pull-down; H3 (1-15) peptides coupled to SulphoLink (iodoalkyl agarose) resin, incubated with baculovirally purified His-ORCA 2 hr at RT in PK 150 buffer (150 mM KCl, 0.02% NP-40); immunoblot; settings: both partners purified

Binder	stoichiometry N (T7-ORCA (full-length))	binding result (His-ORCA (baculovirus))
YFP-Suv39H1 (enzyme, UniProt O43463 1-412, looked up, Suv39H1; human clones in pEYFP and pSV2-YFP-mSuv39H1 are both named in the methods; source: U2OS, transiently transfected, in lysate) MAENLKGCSVCCKSSWNQLQDLCRLAKLSCPALGISKRNLYDFEVEYLCDYKKIREQEYYLVKWRGYPDSESTWEPRQNLKCVRILKQFHKDLERELLRRHHRSKTPRHLDPSLANYLVQKAKQRRALRRWEQELNAKRSHLGRITVENEVDLDGPPRAFVYINEYRVGEGITLNQVAVGCECQDCLWAPTGGCCPGASLHKFAYNDQGQVRLRAGLPIYECNSRCRCGYDCPNRVVQKGIRYDLCIFRTDDGRGWGVRTLEKIRKNSFVMEYVGEIITSEEAERRGQIYDRQGATYLFDLDYVEDVYTVDAAYYGNISHFVNHSCDPNLQVYNVFIDNLDERLPRIAFFATRTIRAGEELTFDYNMQVDPVDMESTRMDSNFGLAGLPGSPKKRVRIECKCGTESCRKYLF	1 Suv39H1 per ORCA	–
YFP-ORC1 (natural protein, UniProt Q13415 1-861, looked up, origin recognition complex subunit 1; source: U2OS, transiently transfected, in lysate) MAHYPTRLKTRKTYSWVGRPLLDRKLHYQTYREMCVKTEGCSTEIHIQIGQFVLIEGDDDENPYVAKLLELFEDDSDPPPKKRARVQWFVRFCEVPACKRHLLGRKPGAQEIFWYDYPACDSNINAETIIGLVRVIPLAPKDVVPTNLKNEKTLFVKLSWNEKKFRPLSSELFAELNKPQESAAKCQKPVRAKSKSAESPSWTPAEHVAKRIESRHSASKSRQTPTHPLTPRARKRLELGNLGNPQMSQQTSCASLDSPGRIKRKVAFSEITSPSKRSQPDKLQTLSPALKAPEKTRETGLSYTEDDKKASPEHRIILRTRIAASKTIDIREERTLTPISGGQRSSVVPSVILKPENIKKRDAKEAKAQNEATSTPHRIRRKSSVLTMNRIRQQLRFLGNSKSDQEEKEILPAAEISDSSSDEEEASTPPLPRRAPRTVSRNLRSSLKSSLHTLTKVPKKSLKPRTPRCAAPQIRSRSLAAQEPASVLEEARLRLHVSAVPESLPCREQEFQDIYNFVESKLLDHTGGCMYISGVPGTGKTATVHEVIRCLQQAAQANDVPPFQYIEVNGMKLTEPHQVYVQILQKLTGQKATANHAAELLAKQFCTRGSPQETTVLLVDELDLLWTHKQDIMYNLFDWPTHKEARLVVLAIANTMDLPERIMMNRVSSRLGLTRMCFQPYTYSQLQQILRSRLKHLKAFEDDAIQLVARKVAALSGDARRCLDICRRATEICEFSQQKPDSPGLVTIAHSMEAVDEMFSSSYITAIKNSSVLEQSFLRAILAEFRRSGLEEATFQQIYSQHVALCRMEGLPYPTMSETMAVCSHLGSCRLLLVEPSRNDLLLRVRLNVSQDDVLYALKDE	1 Orc1 per ORCA	–
CARTKQTARK(Me)STGGKA (a cysteine at the N terminus, for coupling to the resin; human histone H3, amino acids 1-15; also called H3K9me1 peptide; source: synthetic peptide (Biomer technology), coupled to SulphoLink resin) [Histone H3 (1–15) peptide, K9 mono-methylated, N-terminal cysteine]	–	binds

Second part, the binder after the results:

stoichiometry N (T7-ORCA (full-length))	binding result (His-ORCA (baculovirus))	Binder
–	binds	CARTKQTARK(Me2)STGGKA (a cysteine at the N terminus, for coupling to the resin; human histone H3, amino acids 1-15; also called H3K9me2 peptide; source: synthetic peptide (Biomer technology), coupled to SulphoLink resin) [Histone H3 (1–15) peptide, K9 di-methylated, N-terminal cysteine]
–	binds	CARTKQTARK(Me3)STGGKA (a cysteine at the N terminus, for coupling to the resin; human histone H3, amino acids 1-15; also called H3K9me3 peptide; source: synthetic peptide (Biomer technology), coupled to SulphoLink resin) [Histone H3 (1–15) peptide, K9 tri-methylated, N-terminal cysteine]
